Assay results reported in publication PMC11147780, “Vaccination induces broadly neutralizing antibody precursors to HIV gp41” (Nature Immunology, 2024).
Changes are numbered by the printed parent chain. Like-named read-outs stand apart in the source and are kept apart here.

T1: 10E8-GT10.2 epitope scaffold (designed scaffold 10E8-GT10.2 with …, N-linked glycosylation sites added (positions not given))
T1 chain: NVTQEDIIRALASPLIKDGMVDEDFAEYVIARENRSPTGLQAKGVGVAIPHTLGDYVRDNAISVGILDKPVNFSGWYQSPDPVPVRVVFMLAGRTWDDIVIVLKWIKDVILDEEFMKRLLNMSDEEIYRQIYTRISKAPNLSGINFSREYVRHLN

T2: 10E8-B1 epitope scaffold (synthetic construct (resurfaced …))
T2 chain: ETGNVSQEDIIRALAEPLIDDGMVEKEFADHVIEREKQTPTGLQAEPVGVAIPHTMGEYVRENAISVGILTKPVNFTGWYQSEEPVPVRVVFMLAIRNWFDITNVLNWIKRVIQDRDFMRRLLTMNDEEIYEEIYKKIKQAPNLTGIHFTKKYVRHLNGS

T3: T117v2 epitope scaffold (designed scaffold T117v2 with HIV-1 …)
T3 chain: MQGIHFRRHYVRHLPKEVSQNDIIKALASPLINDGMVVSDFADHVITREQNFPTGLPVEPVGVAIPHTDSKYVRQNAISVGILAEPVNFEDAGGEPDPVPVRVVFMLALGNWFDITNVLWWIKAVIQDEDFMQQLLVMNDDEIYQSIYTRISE

T4: T117v2 (designed scaffold T117v2 with HIV-1 …)
T4 construct: also called T117v2 scaffold; source: FreeStyle 293F, purified (IMAC, SEC)
T4 chain: T3 chain

T5: 10E8-GT4 (synthetic construct (T117-based HIV-1 …))
T5 construct: source: FreeStyle 293F, purified (IMAC, SEC)
T5 chain: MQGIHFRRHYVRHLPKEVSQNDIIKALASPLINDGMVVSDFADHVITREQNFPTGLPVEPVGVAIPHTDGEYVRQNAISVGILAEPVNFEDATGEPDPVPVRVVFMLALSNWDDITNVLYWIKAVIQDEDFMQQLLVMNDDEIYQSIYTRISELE

T6: 10E8-GT12 epitope scaffold (synthetic construct (HIV-1 MPER graft …, N-linked glycosylation sites added (positions not given)))
T6 chain: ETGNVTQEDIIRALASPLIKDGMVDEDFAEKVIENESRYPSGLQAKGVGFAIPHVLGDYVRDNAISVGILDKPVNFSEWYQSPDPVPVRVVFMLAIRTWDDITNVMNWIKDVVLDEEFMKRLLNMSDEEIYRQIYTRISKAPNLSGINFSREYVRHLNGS

T7: 10E8-GT10.1 epitope scaffold (synthetic construct, circularly …, N-linked glycosylation sites added (positions not given))
T7 chain: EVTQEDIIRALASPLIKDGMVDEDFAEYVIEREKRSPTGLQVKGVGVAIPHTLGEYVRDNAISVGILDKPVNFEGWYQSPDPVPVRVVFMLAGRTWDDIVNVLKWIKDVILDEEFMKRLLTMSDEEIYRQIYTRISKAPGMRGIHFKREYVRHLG

B1: NHP-10E8_MPER-GT10v55_W26-06 (antibody, V domains shown)
VH: QVQLQESGPGLVKPSETLSLTCAVSGDSISSGYYYWSWIRQPPGKGLEWIGYITYSGSTSYNPSLKSQVTISRDTAKNQFSLKLSSVTAADTAVYYCARGGTYYNFWSDGSPQYNRFGFWGPGVPVTVSS
VL: DIVMTQTPLSLPVTPGEPASISCRSSQSLLHSEDGNTYLDWYLQKPGQSPQLLIYEVSNRASGVPDRFSGSGSDTDFTLKISRVEAEDVGVYYCMQGLEFPLTFGGGTKVELK
B2: NHP-10E8_MPER-GT10v55_W21-19 (antibody, V domains shown)
VH: QVQLQESGPGLLKPSDTLSLICAVSGGSISGGYGWGWIRQPPGKGLEWIGSIYSSNGNTYYNPSLKSRVTISTDTSKNQFSLKLNSVTAADTAVYYCGSGGLSYSFWSGYQSLHRLHVWGPGVLVTVSS
VL: B1 VL with H31D, N59K, L102F, G106P, V110L, E111D, L112I
B3: NHP-10E8_MPER-GT10v55_W26-05 (antibody, V domains shown)
VH: EVQLVESGGGLVQPGGSLRLSCAASGFTFSNYWMNWVRQAPGKGLEWVGFIKNKADGGTAAYAESVKGRFTISRDDSKNTLYLQMNSLKTEDTAVYYCTREATFYNFWSGYYTPQYGLDSWGQGVVVTVSS
VL: QPVLTQPTSLSASPGASARLTCTLSSGISVGSYRIFWYQQKPGSPPRYLLNYHTDSDKHQGSGVPSRFSGSKDASANAGILLISGLQSEDEADYYCMIWHNNAHGLFGGGTRLTV
B4: mature 10E8 broadly neutralizing antibody (antibody, V domains shown)
VH: EVQLVESGGGLVKPGGSLRLSCSASGFDFDNAWMTWVRQPPGKGLEWVGRITGPGEGWSVDYAAPVEGRFTISRLNSINFLYLEMNNLRMEDSGLYFCARTGKYYDFWSGYPPGEEYFQDWGRGTLVTVSS
VL: SYELTQETGVSVALGRTVTITCRGDSLRSHYASWYQKKPGQAPILLFYGKNNRPSGVPDRFSGSASGNRASLTISGAQAEDDAEYYCSSRDKSGSRLSVFGGGTKLTVL
notes: also called 10E8 bnAb; source: FreeStyle 293F cells or ExpiCHO (high-throughput), purified (protein A)
B5: 10E8 (antibody, V domains shown)
VH: B4 VH
VL: B4 VL
notes: also called mature 10E8; 10E8 bnAb; source: FreeStyle 293F or ExpiCHO, purified (protein A)
B6: NHP W3-01 Fab (Fab, V domains shown)
VH: QVQLQESGPGLVKPSETLSLTCAVSGGSFSSDWWGWIRQPPGKGLEWIGTIYGSGGSNYLNPSLKSRVTLSVDTSKNQFSLRLSSVTAADTAVYYCARGSGRYNIWTGYYTPFDAFDFWGRGLRVTVSS
VL: SYELTQPPSMSVSPGQTARITCGGDNLGSKYVHWYQQKPAQAPVLVIYYDSDRPSGIPERFSGSKSGNTATLTISGVEAGDEADYYCQVWDSSSDHYIFGAGTRLTVL
notes: also called 10E8-GT10.2-induced macaque antibody with a YxIW motif from week 3
B7: MPER_HuGL-106 (MPER-102) (antibody, V domains shown)
VH: EVQLVESGGGLVQPGRSLRLSCTASGFTFGDYAMSWVRQAPGKGLEWVGFIRSKAYGGTTEYAASVKGRFTISRDDSKSIAYLQMNSLKTEDTAVYYCTRDKVGYDFWSGDYYYYGMDVWGQGTTVTVSS
VL: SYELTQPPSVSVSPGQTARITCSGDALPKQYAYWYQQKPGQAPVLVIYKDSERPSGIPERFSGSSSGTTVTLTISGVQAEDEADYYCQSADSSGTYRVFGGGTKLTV
B8: MPER-073 (antibody, V domains shown)
VH: QVQLQESGPGLVKPSQTLSLTCTVSGGSISSGGYYWSWIRQHPGKGLEWIGYIYYSGSTYYNPSLKSRVTISVDTSKNQFSLKLSSVTAADTAVYYCARDCAVYDFWSGYGPGGWFDPWGQGTLVTVSS
VL: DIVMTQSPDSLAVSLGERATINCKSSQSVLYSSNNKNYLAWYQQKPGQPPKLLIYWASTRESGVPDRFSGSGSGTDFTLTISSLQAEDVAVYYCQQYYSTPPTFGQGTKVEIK
B9: NHP-10E8_MPER-GT10v55_W3-20 (antibody, V domains shown)
VH: EVQLVESGGGLVQPGGSLRLSCAASGFSFSNYWMSWVRQAPGKGLEWVGFIKNKADGGTAAYAESVKGRFTISRDDSKNTLYLQMNSLKTEDTAVYFCARDLGRYNFWSAFYSQNRFDVWGPGVLVTVSS
VL: SYEVTQPPSVSVSPGQMARITCGGDNLGSKYVHWYQQKPAQAPVMVMYDDSERPSGIPERFSGSKSGNTATLTISGVEAGDEADYYCQVWDSSSDHPLFGGGTRLTV
B10: MPER-072 (antibody, V domains shown)
VH: QVQLQESGSGLVKPSQTLSLTCAVSGGSISSGGYSWSWIRQPPGKGLEWIGYIYHSGSTYYNPSLKSRVTISVDRSKNQFSLKLSSVTAADTAVYYCARAGHNYDFWSGYYPVGGAFDIWGQGTMVTVSS
VL: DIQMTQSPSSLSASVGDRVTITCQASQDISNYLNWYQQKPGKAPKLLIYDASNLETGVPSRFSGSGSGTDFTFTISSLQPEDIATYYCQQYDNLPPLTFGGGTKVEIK
B11: NHP-10E8_MPER-GT10v55_W21-04 (antibody, V domains shown)
VH: EVQLVESGGGLVQPGGSLRLSCVASGFTFSDYGFDWVRQAPGKGLEWVGFIRSKDYGGSTEYAASVKGRFTISRDDSKNTAYLQMTSLKAEDTAVYFCTRDLGFYNFWTGYYEVNRFDVWGAGVLVTVSS
VL: QPVLTQPTSLSASPGASARLTCTLRSGISVGSYRIFWYQQKPGSPPRYLLNYHTDSDNHQGSGVPSRFSGSKDASANAGILLISGLQSDDEADYYCMIWHNNACFFGGGTRLTV
B12: NHP-10E8_MPER-GT10v55_W21-12 (antibody, V domains shown)
VH: EVQLVESGGGLVQPGGSLRLSCAASGFTFSSYGMHWVRQAPGKGLEWVAVIWYDGSKKYYADSVKDRFTISRDNSKNMLYLQMNNLKFEDTAVYYCARVAPDYDFWSGSYTYSGLDSWGQGVVVTVSS
VL: DIQMTQSPSSLSASVGDTVTITCRASQSISSWLDWYQQKPGKAPKLLIYKASNLQSGVPSRFSGSGSGTHFTLTISSLQPEDFATYYCLQYNSSPYSFGQGTKVEIK
B13: 10E8 unmutated common ancestor antibody (antibody, V domains shown)
VH: not shown
VL: SSELTQDPAVSVALGQTVRITCQGDSLRSYYASWYQQKPGQAPVLVIYGKNNRPSGIPDRFSGSSSGNTASLTITGAQAEDEADYYCNSRDSSGNHLVVFGGGTKLTVL
notes: also called 10E8 UCA; proposed 10E8 UCA; source: FreeStyle 293F cells or ExpiCHO (high-throughput), purified (protein A)
B14: 10E8-iGL1 (antibody, V domains shown)
VH: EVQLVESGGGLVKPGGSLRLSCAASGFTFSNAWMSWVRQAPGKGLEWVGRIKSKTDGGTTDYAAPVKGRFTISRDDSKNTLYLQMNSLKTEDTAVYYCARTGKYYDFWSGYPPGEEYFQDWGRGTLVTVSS
VL: B13 VL with N88S, S92K, N95S, H96R, V98S
notes: source: FreeStyle 293F or ExpiCHO, purified (protein A)
B15: 10E8-iGL2 (antibody, V domains shown)
VH: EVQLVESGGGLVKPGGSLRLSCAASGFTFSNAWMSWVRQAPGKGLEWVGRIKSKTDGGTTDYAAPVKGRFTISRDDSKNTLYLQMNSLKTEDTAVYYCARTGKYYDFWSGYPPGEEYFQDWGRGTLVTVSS
VL: B13 VL with V98W
notes: as for B14
B16: NHP-10E8_MPER-GT10v55_W26-03 (antibody, V domains shown)
VH: QVQLQESGPGVVKPSETLSLTCAVSGGSISDNYWWTWIRQPPGKGLEWIGYIYGSNTSTNYNPSLKSRVTISKDTSKNQFSLKLSSVTAADTAVYYCARDREFYNFWSGYYGAYGLDSWGQGVVVTVSS
VL: QPVLTQPTSLSASPGASARLSCTLSSGINVGSYSIYWYQQKPGSPPRYLLYYDSDSNKHQGSGVPSRFSGSNDASANAGLLLISGLQSEDEADYYCAIWHSSTYYIFGGGTRLTV

Assays:
[1] = biological target: T1, 10E8-GT10.2 epitope scaffold
10E8-B1 epitope scaffold [2] = biological target: T2, 10E8-B1 epitope scaffold
T117v2 epitope scaffold = biological target: T3, T117v2 epitope scaffold; test: SPR; values told in the text, methods or extended data without a main figure; instrument not told (Carterra LSA, ProteOn XPR36 with GLC chip or Biacore 4000 with CM5 chip); settings: both partners purified
10E8-B1 epitope scaffold [3] = biological target: T2, 10E8-B1 epitope scaffold; test: SPR; Carterra LSA, HC30M or CMDP chips; antibodies as ligands held by an amine-coupled capture antibody, scaffolds as analytes (monovalent Kd); 1x HBS-EP+ pH 7.4 with 1 mg/ml bovine serum albumin; Langmuir model; values of the main text figures; settings: both partners purified
T117v2 = biological target: T4, T117v2; test: SPR; ProteOn XPR36, GLC sensor chip; antibody as ligand, monomeric scaffold as analyte; monovalent KD; settings: both partners purified
10E8-GT4 = biological target: T5, 10E8-GT4; test: as above; settings: both partners purified
[4] = biological target: T1, 10E8-GT10.2 epitope scaffold; test: SPR; values told in the text, methods or extended data without a main figure; instrument not told (Carterra LSA, ProteOn XPR36 with GLC chip or Biacore 4000 with CM5 chip); settings: both partners purified
[5] = biological target: T6, 10E8-GT12 epitope scaffold
[6] = biological target: T7, 10E8-GT10.1 epitope scaffold
[7] = biological target: T7, 10E8-GT10.1 epitope scaffold; test: SPR; Carterra LSA, HC30M or CMDP chips; antibodies as ligands held by an amine-coupled capture antibody, scaffolds as analytes (monovalent Kd); 1x HBS-EP+ pH 7.4 with 1 mg/ml bovine serum albumin; Langmuir model; values of the main text figures; settings: both partners purified

Binder	Kd [1] [nM]	Kd (10E8-B1 epitope scaffold [2]) [µM]	further results
B1	1.45	6.42	–
B2	0.579	0.415	–
B3	263	9.68	–
B4	–	–	Kd (T117v2 epitope scaffold): 0.39 nM; Kd (10E8-B1 epitope scaffold [3]): 0.08 nM
B5	–	–	Kd (T117v2): 0.00094 µM; Kd (10E8-GT4): 9.5 nM
B6	–	–	Kd [4]: 4.8 nM
B7	–	–	Kd [5]: 1140 nM
B8	20000	–	Kd [6]: 7.3 µM
B9	4.82	4.27	–
B10	16000	–	Kd [6]: 13 µM
B11	0.115	22.9	–
B12	0.842	1.01	–
B13	–	–	Kd [7]: ~600 nM
B14	–	–	Kd (10E8-GT4): 250 nM; koff (10E8-GT4): 25 s⁻¹; kon (10E8-GT4): 1e+08 M⁻¹ s⁻¹
B15	–	–	Kd (T117v2): 17 µM; koff (T117v2): 0.11 s⁻¹; kon (T117v2): 6600 M⁻¹ s⁻¹
B16	0.178	0.84	–
